Results on five molecules are retold here after PMC3776929 (Cell, 2013).

One assay addresses T1, Swc2 (S. cerevisiae, UniProt Q03388 1-795).
T1 construct: Swc2, C-Module subunit of SWR1, S. cerevisiae; source: endogenous, S. cerevisiae; co-purified in the SWR1 complex
T1 sequence (looked up): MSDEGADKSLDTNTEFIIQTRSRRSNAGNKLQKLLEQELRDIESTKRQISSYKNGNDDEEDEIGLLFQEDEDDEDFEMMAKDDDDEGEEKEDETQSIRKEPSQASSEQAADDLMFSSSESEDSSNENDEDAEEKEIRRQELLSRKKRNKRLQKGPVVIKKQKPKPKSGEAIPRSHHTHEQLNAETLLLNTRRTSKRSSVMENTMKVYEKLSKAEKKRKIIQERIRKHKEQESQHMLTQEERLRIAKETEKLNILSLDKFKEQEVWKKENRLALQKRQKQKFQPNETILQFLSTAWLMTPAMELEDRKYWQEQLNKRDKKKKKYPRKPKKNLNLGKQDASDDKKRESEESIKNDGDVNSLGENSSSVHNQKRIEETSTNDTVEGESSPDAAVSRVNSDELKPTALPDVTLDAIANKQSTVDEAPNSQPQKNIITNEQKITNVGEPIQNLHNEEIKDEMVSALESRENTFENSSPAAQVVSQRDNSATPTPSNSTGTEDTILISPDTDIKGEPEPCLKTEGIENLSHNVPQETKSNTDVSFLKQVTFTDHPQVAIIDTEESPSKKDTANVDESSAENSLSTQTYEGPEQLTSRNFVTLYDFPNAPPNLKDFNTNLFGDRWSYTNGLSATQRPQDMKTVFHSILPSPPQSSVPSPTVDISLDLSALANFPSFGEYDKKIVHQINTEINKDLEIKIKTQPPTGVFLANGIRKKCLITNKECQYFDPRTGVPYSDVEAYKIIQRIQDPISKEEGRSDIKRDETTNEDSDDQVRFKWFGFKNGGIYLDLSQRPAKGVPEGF
Briefly: cross-linking; ∼45 μg affinity-purified SWR1 cross-linked with 1 mM DSS d0/d12 in SWR1 buffer, 37°C, 30 min; trypsin, SEC enrichment, LC-MS/MS, xQuest (CX-MS). The settings on record: both partners purified.

The target in assay [1] is T2, Swr1, FLAG-tagged catalytic subunit of the SWR1 complex (S. cerevisiae, UniProt Q05471 1-1514).
T2 construct: Swr1, catalytic ATPase subunit of the SWR1 complex, S. cerevisiae; HSA domain in the N-terminal half, split ATPase domain with long insert in the C-terminal half; also called Swr1-3xFLAG; Swr1 ATPase
T2 sequence (Q05471 whole entry, the tested form may be a part, one chain of several): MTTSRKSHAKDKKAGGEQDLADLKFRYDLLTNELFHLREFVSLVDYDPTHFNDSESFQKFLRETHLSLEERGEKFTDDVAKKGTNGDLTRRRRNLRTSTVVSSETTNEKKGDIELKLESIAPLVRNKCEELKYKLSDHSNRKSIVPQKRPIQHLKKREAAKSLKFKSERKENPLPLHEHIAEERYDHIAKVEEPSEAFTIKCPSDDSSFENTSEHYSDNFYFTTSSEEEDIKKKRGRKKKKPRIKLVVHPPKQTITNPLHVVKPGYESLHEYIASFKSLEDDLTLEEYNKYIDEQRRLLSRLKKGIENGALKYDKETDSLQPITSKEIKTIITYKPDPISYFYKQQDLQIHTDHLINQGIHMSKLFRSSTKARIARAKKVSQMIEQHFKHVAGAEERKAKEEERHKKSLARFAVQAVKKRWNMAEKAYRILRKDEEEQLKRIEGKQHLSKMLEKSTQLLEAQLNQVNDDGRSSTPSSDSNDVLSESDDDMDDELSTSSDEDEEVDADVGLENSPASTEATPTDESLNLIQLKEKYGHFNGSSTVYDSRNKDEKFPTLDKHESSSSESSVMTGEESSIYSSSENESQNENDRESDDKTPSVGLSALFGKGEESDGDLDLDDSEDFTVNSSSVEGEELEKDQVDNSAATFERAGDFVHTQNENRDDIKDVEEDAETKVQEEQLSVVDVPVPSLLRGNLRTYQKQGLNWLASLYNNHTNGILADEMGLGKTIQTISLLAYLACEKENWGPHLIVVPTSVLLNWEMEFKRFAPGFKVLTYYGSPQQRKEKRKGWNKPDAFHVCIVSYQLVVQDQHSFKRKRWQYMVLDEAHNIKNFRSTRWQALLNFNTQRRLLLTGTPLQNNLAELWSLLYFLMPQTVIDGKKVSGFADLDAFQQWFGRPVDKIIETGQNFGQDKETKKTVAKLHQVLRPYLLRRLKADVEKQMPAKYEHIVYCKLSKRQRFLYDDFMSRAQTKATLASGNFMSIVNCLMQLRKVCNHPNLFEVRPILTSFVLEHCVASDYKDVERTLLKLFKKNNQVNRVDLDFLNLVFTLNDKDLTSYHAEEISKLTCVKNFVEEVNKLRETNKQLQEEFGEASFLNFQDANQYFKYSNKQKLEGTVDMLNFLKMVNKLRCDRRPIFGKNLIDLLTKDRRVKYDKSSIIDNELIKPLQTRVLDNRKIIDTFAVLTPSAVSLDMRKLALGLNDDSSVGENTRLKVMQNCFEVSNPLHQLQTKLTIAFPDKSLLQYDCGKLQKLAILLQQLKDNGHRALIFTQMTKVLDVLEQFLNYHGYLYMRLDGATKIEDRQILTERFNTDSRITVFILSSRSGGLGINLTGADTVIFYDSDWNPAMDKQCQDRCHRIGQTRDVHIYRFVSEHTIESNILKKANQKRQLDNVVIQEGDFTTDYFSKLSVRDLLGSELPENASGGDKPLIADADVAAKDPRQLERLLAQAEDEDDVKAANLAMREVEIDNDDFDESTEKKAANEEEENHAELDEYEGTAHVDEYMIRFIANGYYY
Described as above. The settings on record: both partners purified.

Another assay concerns the target T3, Ino80 (UniProt P53115 1-1489).
T3 construct: Ino80, catalytic subunit of the INO80 complex
Briefly: co-IP; INO80 complex purified by affinity and glycerol gradient, resolved on 4%-12% Bis-Tris gels in MOPS buffer; band intensities normalised for protein size. The settings on record: partners not purified.

Another assay addresses T4, Arp4 (S. cerevisiae, UniProt P80428 1-489).
T4 construct: Arp4, actin-related protein, N-Module subunit of SWR1, S. cerevisiae; source: endogenous, S. cerevisiae; co-purified in the SWR1 complex
T4 sequence (looked up): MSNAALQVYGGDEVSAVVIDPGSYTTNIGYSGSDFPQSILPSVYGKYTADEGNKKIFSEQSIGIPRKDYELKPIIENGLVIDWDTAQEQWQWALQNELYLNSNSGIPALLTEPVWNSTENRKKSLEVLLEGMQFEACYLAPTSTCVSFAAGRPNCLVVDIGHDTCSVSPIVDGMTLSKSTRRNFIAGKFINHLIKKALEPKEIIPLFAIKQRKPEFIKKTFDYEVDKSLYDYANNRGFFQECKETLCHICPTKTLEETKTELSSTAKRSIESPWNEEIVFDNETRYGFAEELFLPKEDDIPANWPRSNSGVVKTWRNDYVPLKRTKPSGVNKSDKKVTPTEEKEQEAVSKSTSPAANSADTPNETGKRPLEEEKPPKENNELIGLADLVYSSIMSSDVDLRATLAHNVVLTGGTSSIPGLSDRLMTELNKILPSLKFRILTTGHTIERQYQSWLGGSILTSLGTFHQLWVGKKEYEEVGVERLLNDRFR
The assay is described as follows: cross-linking; ∼45 μg affinity-purified SWR1 cross-linked with 1 mM DSS d0/d12 in SWR1 buffer, 37°C, 30 min; trypsin, SEC enrichment, LC-MS/MS, xQuest (CX-MS). The settings on record: both partners purified.

Assay [2] concerns the target T2, Swr1, FLAG-tagged catalytic subunit of …. The assay is described as follows: co-IP; FLAG affinity purification of SWR1 (or a subcomplex) from S. cerevisiae, eluted with 3× FLAG peptide; SDS-PAGE (4%-12% Bis-Tris), Coomassie or SYPRO Orange stain; band intensities normalised for protein size for the stoichiometry. The settings on record: partners not purified.

T3 sequence (P53115 whole entry): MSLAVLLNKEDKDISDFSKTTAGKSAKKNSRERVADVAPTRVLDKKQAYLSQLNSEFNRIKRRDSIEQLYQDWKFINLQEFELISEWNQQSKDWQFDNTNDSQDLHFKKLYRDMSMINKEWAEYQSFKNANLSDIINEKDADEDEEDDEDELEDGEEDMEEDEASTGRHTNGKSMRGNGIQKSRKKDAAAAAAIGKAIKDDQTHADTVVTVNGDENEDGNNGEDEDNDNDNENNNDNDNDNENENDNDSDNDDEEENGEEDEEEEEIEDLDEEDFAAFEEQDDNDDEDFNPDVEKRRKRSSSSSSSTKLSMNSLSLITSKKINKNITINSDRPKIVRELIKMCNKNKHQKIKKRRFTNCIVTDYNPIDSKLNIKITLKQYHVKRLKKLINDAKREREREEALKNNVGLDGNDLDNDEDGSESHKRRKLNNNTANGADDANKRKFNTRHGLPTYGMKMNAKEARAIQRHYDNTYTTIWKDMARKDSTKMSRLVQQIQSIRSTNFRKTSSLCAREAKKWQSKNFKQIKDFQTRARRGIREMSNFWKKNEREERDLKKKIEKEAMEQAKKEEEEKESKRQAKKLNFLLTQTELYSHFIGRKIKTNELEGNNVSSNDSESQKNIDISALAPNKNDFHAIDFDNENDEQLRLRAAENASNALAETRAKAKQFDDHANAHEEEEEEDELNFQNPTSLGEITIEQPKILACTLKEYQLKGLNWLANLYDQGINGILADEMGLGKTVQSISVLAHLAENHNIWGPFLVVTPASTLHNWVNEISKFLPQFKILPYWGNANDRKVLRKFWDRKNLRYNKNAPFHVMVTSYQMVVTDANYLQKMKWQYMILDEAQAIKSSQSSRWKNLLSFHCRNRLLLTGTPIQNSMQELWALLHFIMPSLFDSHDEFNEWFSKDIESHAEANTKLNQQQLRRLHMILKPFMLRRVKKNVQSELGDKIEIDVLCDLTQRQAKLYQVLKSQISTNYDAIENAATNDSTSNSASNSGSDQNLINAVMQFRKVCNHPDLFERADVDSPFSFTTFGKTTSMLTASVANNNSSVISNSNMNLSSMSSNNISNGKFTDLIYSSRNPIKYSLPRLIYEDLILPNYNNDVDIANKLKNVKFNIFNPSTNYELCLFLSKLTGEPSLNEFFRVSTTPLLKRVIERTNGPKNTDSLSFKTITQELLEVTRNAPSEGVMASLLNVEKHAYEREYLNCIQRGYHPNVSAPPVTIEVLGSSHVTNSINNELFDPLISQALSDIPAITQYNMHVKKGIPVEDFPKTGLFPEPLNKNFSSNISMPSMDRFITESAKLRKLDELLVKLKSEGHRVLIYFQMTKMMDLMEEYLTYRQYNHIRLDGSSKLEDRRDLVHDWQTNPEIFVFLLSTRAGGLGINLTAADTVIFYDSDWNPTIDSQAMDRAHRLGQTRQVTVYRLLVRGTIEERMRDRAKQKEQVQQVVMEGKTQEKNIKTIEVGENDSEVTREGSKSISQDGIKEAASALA

B1: Bdf1 (natural protein, S. cerevisiae, UniProt P35817 1-686, looked up)
chain: MTDITPVQNDVDVNGNNVNDDVSSNLKRPIDQGDPSNGLAEEENPANNQLHLKKARLDGDALTSSPAGLAENGIEGATLAANGENGYNATGSGAEDEQQGLKKEEGGQGTKQEDLDENSKQELPMEVPKEPAPAPPPEPDMNNLPQNPIPKHQQKHALLAIKAVKRLKDARPFLQPVDPVKLDIPFYFNYIKRPMDLSTIERKLNVGAYEVPEQITEDFNLMVNNSIKFNGPNAGISQMARNIQASFEKHMLNMPAKDAPPVIAKGRRSSAQEDAPIVIRRAQTHNGRPKRTIHPPKSKDIYPYESKKPKSKRLQQAMKFCQSVLKELMAKKHASYNYPFLEPVDPVSMNLPTYFDYVKEPMDLGTIAKKLNDWQYQTMEDFERDVRLVFKNCYTFNPDGTIVNMMGHRLEEVFNSKWADRPNLDDYDSDEDSRTQGDYDDYESEYSESDIDETIITNPAIQYLEEQLARMKVELQQLKKQELEKIRKERRLARGSKKRGKRSKGRSGSKNASSKGRRDKKNKLKTVVTYDMKRIITERINDLPTSKLERAIDIIKKSMPNISEDDEVELDLDTLDNHTILTLYNTFFRQYESSSGASNGLDGTSGVTRDASSLSPTSAGSRKRRSKALSQEEQSRQIEKIKNKLAILDSASPLSQNGSPGQIQSAAHNGFSSSSDDDVSSESEEE
notes: Bdf1, N-Module subunit of SWR1, S. cerevisiae; source: endogenous, S. cerevisiae; co-purified in the SWR1 complex
With B1, the binding result with Swc2 is given as “binds”.

B2: Swc3 (natural protein, S. cerevisiae, UniProt P31376 1-625, looked up)
chain: MPAVLRTRSKESSIEQKPASRTRTRSRRGKRGRDDDDDDDDEESDDAYDEVGNDYDEYASRAKLATNRPFEIVAGLPASVELPNYNSSLTHPQSIKNSGVLYDSLVSSRRTWVQGEMFELYWRRPKKIVSESTPAATESPTSGTIPLIRDKMQKMCDCVMSGGPHTFKVRLFILKNDKIEQKWQDEQELKKKEKELKRKNDAEAKRLRMEERKRQQMQKKIAKEQKLQLQKENKAKQKLEQEALKLKRKEEMKKLKEQNKNKQGSPSSSMHDPRMIMNLNLMAQEDPKLNTLMETVAKGLANNSQLEEFKKFIEIAKKRSLEENPVNKRPSVTTTRPAPPSKAKDVAEDHRLNSITLVKSSKTAATEPEPKKADDENAEKQQSKEAKTTAESTQVDVKKEEEDVKEKGVKSEDTQKKEDNQVVPKRKRRKNAIKEDKDMQLTAFQQKYVQGAEIILEYLEFTHSRYYLPKKSVVEFLEDTDEIIISWIVIHNSKEIEKFKTKKIKAKLKADQKLNKEDAKPGSDVEKEVSFNPLFEADCPTPLYTPMTMKLSGIHKRFNQIIRNSVSPMEEVVKEMEKILQIGTRLSGYNLWYQLDGYDDEALSESLRFELNEWEHAMRSRRHKR
notes: Swc3, C-Module subunit of SWR1, S. cerevisiae; source: endogenous, S. cerevisiae; co-purified in the SWR1 complex
B2: in assay [1], the binding result is “binds”.

B3: Rvb1 (natural protein, S. cerevisiae, UniProt Q03940 1-463, looked up)
chain: MVAISEVKENPGVNSSNSGAVTRTAAHTHIKGLGLDESGVAKRVEGGFVGQIEAREACGVIVDLIKAKKMSGRAILLAGGPSTGKTALALAISQELGPKVPFCPLVGSELYSVEVKKTETLMENFRRAIGLRIKETKEVYEGEVTELTPEDAENPLGGYGKTISHVIVGLKSAKGTKTLRLDPTIYESIQREKVSIGDVIYIEANTGAVKRVGRSDAYATEFDLETEEYVPLPKGEVHKKKEIVQDVTLHDLDVANARPQGGQDVISMMGQLLKPKKTEITEKLRQEVNKVVAKYIDQGVAELIPGVLFIDEVNMLDIEIFTYLNKALESNIAPVVVLASNRGMTTVRGTEDVISPHGVPPDLIDRLLIVRTLPYDKDEIRTIIERRATVERLQVESSALDLLATMGTETSLRYALQLLAPCGILAQTSNRKEIVVNDVNEAKLLFLDAKRSTKILETSANYL
notes: Rvb1, AAA+ ATPase, S. cerevisiae (YDR190C); also called AAA+ ATPase Rvb1; source: endogenous, S. cerevisiae; co-purified in the SWR1 and INO80 complexes
Consider B3, for which the “stoichiometry N” value (in the assay with Ino80; in assay [2]) was approximately 3 each time. Besides, in the assay with Arp4, the binding result is on record as “binds”.

B4: Swc4 (natural protein, S. cerevisiae, UniProt P53201 1-476, looked up)
chain: MSSSDIFDVLNIKQKSRSPTNGQVSVPSSSAANRPKPQVTGMQRELFNLLGENQPPVVIKSGNNFKEKMLSTSKPSPWSFVEFKANNSVTLRHWVKGSKELIGDTPKESPYSKFNQHLSIPSFTKEEYEAFMNENEGTQKSVESEKNHNENFTNEKKDESKNSWSFEEIEYLFNLCKKYDLRWFLIFDRYSYNNSRTLEDLKEKFYYTCRNYFKASDPSNPLLSSLNFSAEKEIERKKYLQRLLSRSAAEIAEEEALVVESKKFEMAAKRTLAERESLLRLLDSPHSDQTITQYLTSQGMSQLYNALLADKTRKRKHDLNIPENPWMKQQQQFAQHRQLQQLNVKKSEVKENLSPKKTKRQRQEMQTALKRKSESAYAEQLLKDFNSDERKALGVITHGEKLSPGVYLRSTKLSTFKPALQNKILAILQELSLPSRPVMPSFDVMERQEELLKKINTLIDLKKHVDKYEAGMSITK
notes: Swc4, N-Module subunit of SWR1, S. cerevisiae; source: endogenous, S. cerevisiae; co-purified in the SWR1 complex
With B4, the binding result (with Arp4; in assay [1]) was “binds” in each case.

B5: Rvb2 (natural protein, S. cerevisiae, UniProt Q12464 1-471, looked up)
chain: MSIQTSDPNETSDLKSLSLIAAHSHITGLGLDENLQPRPTSEGMVGQLQARRAAGVILKMVQNGTIAGRAVLVAGPPSTGKTALAMGVSQSLGKDVPFTAIAGSEIFSLELSKTEALTQAFRKSIGIKIKEETELIEGEVVEIQIDRSITGGHKQGKLTIKTTDMETIYELGNKMIDGLTKEKVLAGDVISIDKASGKITKLGRSFARSRDYDAMGADTRFVQCPEGELQKRKTVVHTVSLHEIDVINSRTQGFLALFTGDTGEIRSEVRDQINTKVAEWKEEGKAEIVPGVLFIDEVHMLDIECFSFINRALEDEFAPIVMMATNRGVSKTRGTNYKSPHGLPLDLLDRSIIITTKSYNEQEIKTILSIRAQEEEVELSSDALDLLTKTGVETSLRYSSNLISVAQQIAMKRKNNTVEVEDVKRAYLLFLDSARSVKYVQENESQYIDDQGNVQISIAKSADPDAMDTTE
notes: Rvb2, AAA+ ATPase, S. cerevisiae (YPL235W); also called AAA+ ATPase Rvb2; source: endogenous, S. cerevisiae; co-purified in the SWR1 and INO80 complexes
In the case of B5, the “stoichiometry N” value (in the assay with Ino80; in assay [2]) was approximately 3 each time.
